Seven molecules from patent US20240101708A1 (Genentech, published 2024) can be followed below.

A word on the Kd: it is the constant that tells how readily two partners part at equilibrium.

One experiment concerns the target RNF128 (GRAIL). Briefly: flow cytometry of live HT29 cells with stably integrated, doxycycline-induced gD-tagged ligase, stained with anti-gD antibody and APC; Parental HT29 APC-A+ 0.27. For orientation: Flow cytometry measures light scatter and fluorescence of single cells or particles in a stream.
The next experiment deals with RNF13. The experiment is described as above.
Chain of RNF13 (transmembrane E3 ubiquitin ligase with N-terminal gD tag, as listed by the source limits assumed): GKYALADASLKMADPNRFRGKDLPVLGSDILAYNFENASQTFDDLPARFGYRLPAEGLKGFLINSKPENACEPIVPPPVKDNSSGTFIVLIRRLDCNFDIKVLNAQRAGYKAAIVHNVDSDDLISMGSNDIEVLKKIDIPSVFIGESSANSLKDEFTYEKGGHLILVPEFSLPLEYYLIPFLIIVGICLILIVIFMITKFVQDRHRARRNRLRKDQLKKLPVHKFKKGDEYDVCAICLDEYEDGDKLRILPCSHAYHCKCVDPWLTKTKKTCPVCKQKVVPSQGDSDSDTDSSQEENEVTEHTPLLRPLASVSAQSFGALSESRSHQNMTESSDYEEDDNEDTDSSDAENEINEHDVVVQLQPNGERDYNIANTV
Another experiment concerns the target RNF43. The experiment is described as above.
The target of experiment [1] is T1, recombinant human ZNRF3 extracellular domain (human, UniProt Q9ULT6 56-219).
T1 construct: extracellular domain; also called huZNRF3; human ZNRF3 ECD
T1 sequence (looked up): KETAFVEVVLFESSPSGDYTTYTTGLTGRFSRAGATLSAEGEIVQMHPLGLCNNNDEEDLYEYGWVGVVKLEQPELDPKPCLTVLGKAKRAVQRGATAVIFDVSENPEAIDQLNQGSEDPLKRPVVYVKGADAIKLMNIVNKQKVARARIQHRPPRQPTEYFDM
Briefly: SPR Biacore 8K; antibody captured on Protein A; ZNRF3 ECD analyte; 25 C. The method, then:
Antibodies were screened for binding to recombinant human RNF43 and ZNRF3 ECDs using a Biacore® 8 k instrument (GE Life Sciences). Briefly, antibodies diluted to 1 μg/ml in 1×HBSP buffer (Cytiva, BR100368) were captured on a Sensor Chip Protein A (GE Life Sciences) using a flow rate of 10 μl/minute and a contact time of 60 seconds. Binding of recombinant human RNF43 and ZNRF3 extracellular domain to the captured antibodies was analyzed at 25° C. using a single cycle kinetics method with a flow rate of 30 μl/minute, a contact time of 180 seconds and a dissociation time of 600 seconds. The concentration of recombinant human RNF43 and ZNRF3 extracellular domain in the single cycle kinetics were 0, 0.8, 4, 20, and 100 nM. Between cycles, the chip was regenerated using 10 mM Glycine HCl pH 1.5 injected for 30 seconds at 30 μl/minute. Data were evaluated using Biacore 8K Evaluation software (GE Life Sciences). Kinetic constants were obtained using a 1:1 binding model with the parameter RI set to zero. Cell surface ligase antibodies with sub-nanomolar affinities may provide advantages in certain instances, for example, in the degradation efficiency which is correlated with the durability of the ternary complex as shown in FIG. 5D.

In experiment [2] the target is T2, recombinant human RNF43 extracellular domain (human) (UniProt Q68DV7).
T2 sequence (looked up): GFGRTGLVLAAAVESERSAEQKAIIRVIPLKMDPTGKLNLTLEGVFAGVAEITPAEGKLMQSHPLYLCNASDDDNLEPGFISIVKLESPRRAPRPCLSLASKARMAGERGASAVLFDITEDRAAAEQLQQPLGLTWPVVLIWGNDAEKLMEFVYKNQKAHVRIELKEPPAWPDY
Briefly: SPR Biacore 8K; antibody captured on Protein A; RNF43 ECD analyte; 25 C. A general note: Surface plasmon resonance follows binding to a sensor surface in real time, without labels.

Chain of RNF43 (transmembrane E3 ubiquitin ligase with N-terminal gD tag, as listed by the source limits assumed): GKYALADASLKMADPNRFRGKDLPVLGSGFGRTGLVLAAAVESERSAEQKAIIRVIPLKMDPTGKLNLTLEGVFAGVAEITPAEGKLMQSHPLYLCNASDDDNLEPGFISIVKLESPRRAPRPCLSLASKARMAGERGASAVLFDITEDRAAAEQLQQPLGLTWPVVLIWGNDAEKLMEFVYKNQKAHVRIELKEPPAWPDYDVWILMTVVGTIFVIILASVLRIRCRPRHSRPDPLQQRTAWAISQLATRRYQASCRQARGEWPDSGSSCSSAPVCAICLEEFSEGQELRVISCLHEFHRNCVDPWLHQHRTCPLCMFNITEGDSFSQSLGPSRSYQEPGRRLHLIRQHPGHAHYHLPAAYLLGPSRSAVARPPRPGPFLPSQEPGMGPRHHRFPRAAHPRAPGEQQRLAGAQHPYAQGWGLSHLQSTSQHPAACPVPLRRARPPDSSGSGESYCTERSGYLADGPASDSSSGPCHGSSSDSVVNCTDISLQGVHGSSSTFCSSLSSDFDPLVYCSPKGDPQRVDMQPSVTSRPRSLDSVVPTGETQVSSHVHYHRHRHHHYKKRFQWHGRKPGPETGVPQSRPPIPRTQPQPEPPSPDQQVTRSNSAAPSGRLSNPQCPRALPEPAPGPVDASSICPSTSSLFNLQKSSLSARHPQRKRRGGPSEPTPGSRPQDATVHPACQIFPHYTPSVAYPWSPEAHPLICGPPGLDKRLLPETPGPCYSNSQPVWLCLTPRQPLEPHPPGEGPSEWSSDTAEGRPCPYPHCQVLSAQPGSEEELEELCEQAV
Chain of RNF128 (GRAIL) (transmembrane E3 ubiquitin ligase with N-terminal gD tag, as listed by the source limits assumed): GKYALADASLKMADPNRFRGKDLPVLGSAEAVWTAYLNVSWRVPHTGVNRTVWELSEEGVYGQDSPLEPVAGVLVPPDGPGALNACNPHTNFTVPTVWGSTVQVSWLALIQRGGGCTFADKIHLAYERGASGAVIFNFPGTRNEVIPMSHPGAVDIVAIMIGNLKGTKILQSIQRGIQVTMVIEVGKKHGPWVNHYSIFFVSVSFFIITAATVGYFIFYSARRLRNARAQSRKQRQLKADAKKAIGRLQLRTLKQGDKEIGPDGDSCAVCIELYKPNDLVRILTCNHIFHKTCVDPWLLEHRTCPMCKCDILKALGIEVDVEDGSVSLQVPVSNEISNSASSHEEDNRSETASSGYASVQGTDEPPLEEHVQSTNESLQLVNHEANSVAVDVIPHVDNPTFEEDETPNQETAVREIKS

For the molecule anti-gD antibody, the APC-A+ (share of cells in the positive gate; percentage by paragraph 258) is 35 in the experiment with RNF128 (GRAIL), 0.79 with RNF13 and 63 with RNF43.

B1: ZNRF3-222 (antibody, V domains shown)
VH: EVQLVESGGGLVQPGRSLKLSCAVSGFTFSNYGMAWVRQTPTKGLEWVATITYDGSTTYYRDSVKGRFTISRDNAKSALSLQMDSLRSEDTATYHCARQGLGYPFVYWGQGTLVTVSS
VL: DVVMTQTPVSLPVSLGGQASISCRTSQSLVHSNGNTYLHWYLQKPGQSPQLLIYRVSNRFSGVPDRFSGSGSGTDFTLKISRIEPEDLGDYYCLQSTHFPYTFGAGTKLELK
notes: Rat clone; VH/VL only
B1: in experiment [1], the binding result is “no binding”.

B2: ZNRF3-237 (antibody, V domains shown)
VH: QIQLVQSGPELKKPGESVKISCKASGYTFTDYAMHWVKQVPGKGLKWMGWINTYTGKPTYADDFKGRFVFSLEASASTVNLQISNLKNEDTANVFCARGGLLSRGWFAYWGQGTLVTVSS
VL: DIVMTQTPVSLSVSLGGQVSISCRSSQSFVHSDGNSYLSWYLQKPGQSPQLLIYEVSNRLSGVPDRFSGSGSGTDFTLKISRVEHDDLGVYYCGQASKIPLTFGSGTKLEIK
notes: Rat clone; VH/VL only
In the case of B2, in experiment [1], the Kd was 5.3 nM.

B3: ZNRF3-331 (antibody, V domains shown)
VH: QSVEESGGRLVTPGTPLTLTCTVSGFSLSSYAMGWVRQAPGKGLEWIGIIYAGDTTYYASWAKGRFTISETSTTVDLKITSPTTEDTATYFCARKSDDDSDSYLLWGPGTLVTVSS
VL: AYDMTQTPASVEVAVGGTVTIKCQASQSISSYLNWYQQKRGQPPKLLIYDASTLASGVPSRFSGSGSGTEFTLTISGVQCDDAATYYCQQGWSSTNIDNIFGGGTEVVVK
notes: Rabbit clone; VH/VL only
B3: the dissociation constant (Kd) in experiment [1] worked out at 0.2 nM.

B4: RNF43-19 (antibody, V domains shown)
VH: QQQLEESGGGLVKPGGTLTLTCKASGIDFSTYYYMCWVRQAPGKGLEWIACIYTGDGNTYYASWAKGRFTISKTSSTTVTLQMTSLTAADTATYFCARDLAGSSYYSGYYFKLWGPGTLVTVSS
VL: DVVMTQTPASVSEPVGGTVTIKCQASQSIGSNLAWYQQKPGQPPKLLIYSVSNLASGVSSRFKGSRSGTEYTLTISDLECADAATYYSQSGYYGSTYAFGGGTEVVVK
With B4, the Kd in experiment [2] amounted to 34.2 nM.

B5: ZNRF3-322 (antibody, V domains shown)
VH: EVHLVESGGGLVQPGRSLTLSCVASGFTFNNWWMTWIRQAPGKGLEWVASISHTGGSTSYPDSVKGRFTISRDNAKSTLYLQMTSLRSDDTATYYCTRWGPILRGFDYWGQGVMVTVSS
VL: DVVLTQTPPTLSATIGQSVSISCRSSQSLLHINGNTYVNWLVQRPGQPPQLLFYLVSRLESGVPNRFSGSGSGTDFTLKISGVEAEDLGVYYCVQSTHAPPTFGGGTKLELK
notes: Rat clone; VH/VL only
With B5, in experiment [1], the binding result is “no binding”.

B6: ZNRF3-332 (antibody, V domains shown)
VH: QSLEESGGGLVQPEGSLTLTCTASGIDFSTRNYMCWVRQAPGKGLEWVGCIYTSSGGTYYASWVNGRFTISKTSSTTVTLRMTSLTAADTATYFCARGGYVGYGYATYFNLWGPGTLVAVSS
VL: DVVMTQTPASVSEPVGGTVTIKCQASQSISSYLSWYQQKPGQPPKLLIYYVSNLESGVPSRFKGSGSGTEFTLTISDLECADAATYYCQNYYSSSSGWAFGGGTEVVVK
notes: Rabbit clone; VH/VL only
B6: the dissociation constant Kd in experiment [1] was found to be 1.6 nM.
